This note sets out measurements from paper PMC2172085.

The target of this experiment is YFP-hDcp2 (human), Q8IU60. Kind of experiment: FRET or BRET. To be noted: remark: other sources report otherwise.

B1: CFP-hDcp1a, Q9NPI6 1-582 (natural protein)
chain: MEALSRAGQEMSLAALKQHDPYITSIADLTGQVALYTFCPKANQWEKTDIEGTLFVYRRSASPYHGFTIVNRLNMHNLVEPVNKDLEFQLHEPFLLYRNASLSIYSIWFYDKNDCHRIAKLMADVVEEETRRSQQAARDKQSPSQANGCSDHRPIDILEMLSRAKDEYERNQMGDSNISSPGLQPSTQLSNLGSTETLEEMPSGSQDKSAPSGHKHLTVEELFGTSLPKEQPAVVGLDSEEMERLPGDASQKEPNSFLPFPFEQLGGAPQSETLGVPSAAHHSVQPEITTPVLITPASITQSNEKHAPTYTIPLSPVLSPTLPAEAPTAQVPPSLPRNSTMMQAVKTTPRQRSPLLNQPVPELSHASLIANQSPFRAPLNVTNTAGTSLPSVDLLQKLRLTPQHDQIQTQPLGKGAMVASFSPAAGQLATPESFIEPPSKTAAARVAASASLSNMVLAPLQSMQQNQDPEVFVQPKVLSSAIPVAGAPLVTATTTAVSSVLLAPSVFQQTVTRSSDLERKASSPSPLTIGTPESQRKPSIILSKSQLQDTLIHLIKNDSSFLSTLHEVYLQVLTKNKDNHNL
On to B1, for which the apparent FRET efficiency (one experiment, foci in the bleached region) is 17% and the average apparent FRET efficiency came to 15%.
